Assay results from patent publication US20190016806A1 (BPS BIOSCIENCE, published 2019).

Biological target: PD-1 expressed on Jurkat T cells (NFAT luciferase reporter) (human, UniProt Q15116 25-288)
Test: cell-based or functional assay

Chain of PD-1 expressed on Jurkat T cells (NFAT luciferase reporter) (Q15116 25-288): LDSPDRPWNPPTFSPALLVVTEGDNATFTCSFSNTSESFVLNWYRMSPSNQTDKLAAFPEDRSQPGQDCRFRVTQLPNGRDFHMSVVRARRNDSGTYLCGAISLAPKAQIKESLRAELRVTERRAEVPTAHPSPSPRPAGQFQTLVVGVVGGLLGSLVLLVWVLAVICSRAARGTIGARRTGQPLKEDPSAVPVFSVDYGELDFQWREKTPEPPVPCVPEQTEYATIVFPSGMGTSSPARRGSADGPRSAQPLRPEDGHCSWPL

B1: BPS hAb-10D3 humanized anti-PD-1 neutralizing antibody (antibody, V domains shown)
VH: QVQLQESGPGLVKPSQTLSLTCSVSGYSITSGYFWNWIRQFPGNKLEWIGYISYDGSKNYNPSLKNRVTIIRDTSKNQFSLKLNSVTAEDTATYYCVRGGLPVMDYWGQGTSVTVSS
VL: DIVMTQSPSSLALSVGEKATIQCKSSQSLLDDNNQKNYLAWYQQKPGQPPKLLIFFASTRESGVPDRFIGSGSGTDFTLTISSLQAEDLADYYCQQHYTTPYTFGGGTNVEIK
- EC50 of inhibition of PD-1 signaling (NFAT luciferase reporter in Jurkat T cells with PD-L1-expressing HEK293 cells): 0.38 µg/mL
